How the values were obtained:
[1] = target: T1, D-dimer (cross-linked fibrin degradation product) (Homo sapiens, UniProt P02671;P02675;P02679 SEQ:1-87,SEQ:1-328,SEQ:1-324); assay: ELONA; 25 nM; conditions: tags: none stated; about 180 kDa; chain copies: 2 of each chain (inferred); label: biotin (5' or 3')
Experimental: (§1) 25 nM of either 3′ Bioitnilated ADI1701, Truncation 1, Truncation 2, Truncation 3, Truncation 4, Truncation 5, scrambled sequence 1, scrambled sequence 2 and scrambled sequence 3 was incubated with D-Dimer protein immobilized on a 96 well ELISA plate. As a control, 3′ Biotin-ADI1701 was incubated with fibrinogen or two plasma samples from donors with low D-Dimer levels (<200 ng/ml) immobilized on the plate. Absorbance was measured after incubation with streptavidin horse radish peroxidase bound to the biotinylated aptamer in the presence of the substrate 3,3′,5,5′-Tetramethylbenzidine (TMB). […] Deleting three or five bases from the 5′ end of ADI1701 decreased the binding to D-dimer by 33%. […] The values shown are subtracted from the absorbance measured in the presence of albumin that was used as the blank.
(§2) Various truncations were made to the 3′ Biotinylated-ADI1701 aptamer from the 5′ and 3′-ends. Deleting as little as 3 bases from the 5′-end or 5 bases from the 3′-end affected the binding of ADI1701 to D-dimer (FIG. 7). Again, none of the scrambled sequences with Biotin label on either the 5′ or 3′-ends presented any binding to D-dimer.

Fibrinogen [2] = target: T2, Fibrinogen (UniProt P02671-2;P02675;P02679-2 P02671-2:20-644,P02675:31-491,P02679-2:27-437); assay: ELONA; 25 nM aptamer, immobilized fibrinogen; low D-dimer plasma also negative; conditions: chain copies: 2; label: 3' biotin
Experimental: as §1, §2

[3] = target: T1, D-dimer (cross-linked fibrin …); assay: SPR; SPRi, biotinylated aptamer on streptavidin gold, 10 nM D-dimer in flow; ka 2.0e6, kd 0.0048 per s; conditions: tags: none stated; about 180 kDa; chain copies: 2 of each chain (inferred); label: 3' biotin
Experimental: Interaction between ADI1701 and D-dimer was analyzed by a SPR device, Openplex SPRi system from Horiba Scientific. Various amounts of ADI1701 (5 fmol, 50 fmmol and 500 fmol) were immobilized on a gold sensor chip, and D-dimer (10 nM) was injected to the flow cell, and ScrubberGen Ver. 2.0g software was used to subtract the references. […] Nonspecific binding of D-dimer to ADI1701scram was subtracted at the respective concentrations.
Further studies on the specificity and affinity of binding of ADI1701 to D-dimer were performed using Surface plasmon resonance (SPR). SPR has become an important optical bio-sensing technology in the areas of biochemistry, biology, and medical sciences because of its real-time, label-free, and noninvasive nature. Various amounts of biotinylated ADI1701 were immobilized on streptavidin coated gold surface and D-dimer to flow through. It is shown herein that ADI1701 binds directly to D-Dimer (FIG. 8).

Fibrinogen [4] = target: T2, Fibrinogen; assay: EMSA; native PAGE, no band overlapping fibrinogen; conditions: chain copies: 2
[5] = target: T1, D-dimer (cross-linked fibrin …); assay: ELONA; estimated from saturation curve; text says 5' biotin, FIG. 6 legend says 3' biotin; conditions: tags: none stated; about 180 kDa; chain copies: 2 of each chain (inferred); label: 5' biotin
[6] = target: T1, D-dimer (cross-linked fibrin …); assay: latex bead agglutination; seen at lower concentration than with fibrinogen; conditions: tags: none stated; about 180 kDa; chain copies: 2 of each chain (inferred)
Experimental: (§3) FIGS. 10A and 10B show photomicrographs of Latex-Aptamer Beads at Different Preparations and at Two Extreme Levels of D-Dimer Concentration. […] The well concentration of the proteins are (serial dilution from left to right, per 150 uL total well volume): 10 nM, 5 nM, 2.5 nM and 1.25 nM of D-Dimer; 10 nM, 5 nM, 2.5 nM and 1.25 nM of Fibrinogen; 750 nM, 375 nM, 188 nM and 94 nM of the BSA. (Ref: NB3, p 19-20, Aug. 29, 2017). 50 ul of aptamer conjugated to the latex beads were added to each well.
(§4) FIG. 10 represents an image of the wells section of a 96-well plate with the initial testing of coagulation.

Bovine serum albumin = Bovine serum albumin (Bos taurus, UniProt P02769 P02769:25-607); assay: latex bead agglutination, no agglutination at highest BSA amount
Experimental: as §3, §4

T1 sequence (P02671 130-216, chain 1 of 3): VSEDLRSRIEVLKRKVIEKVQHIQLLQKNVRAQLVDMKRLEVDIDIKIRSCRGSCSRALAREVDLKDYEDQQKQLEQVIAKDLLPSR
T1 sequence (P02675 164-491, chain 2 of 3): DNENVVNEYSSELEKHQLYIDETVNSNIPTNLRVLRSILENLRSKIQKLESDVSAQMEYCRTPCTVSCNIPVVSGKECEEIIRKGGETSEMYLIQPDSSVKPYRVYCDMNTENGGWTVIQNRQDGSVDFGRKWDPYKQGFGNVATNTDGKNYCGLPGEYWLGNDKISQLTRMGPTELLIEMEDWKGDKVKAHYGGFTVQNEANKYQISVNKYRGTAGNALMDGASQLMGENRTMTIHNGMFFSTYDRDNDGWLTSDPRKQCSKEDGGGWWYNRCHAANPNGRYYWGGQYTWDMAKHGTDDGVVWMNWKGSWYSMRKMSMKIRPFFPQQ
T1 sequence (P02679 other isoform, or with tags, fused parts or gaps, chain 3 of 3): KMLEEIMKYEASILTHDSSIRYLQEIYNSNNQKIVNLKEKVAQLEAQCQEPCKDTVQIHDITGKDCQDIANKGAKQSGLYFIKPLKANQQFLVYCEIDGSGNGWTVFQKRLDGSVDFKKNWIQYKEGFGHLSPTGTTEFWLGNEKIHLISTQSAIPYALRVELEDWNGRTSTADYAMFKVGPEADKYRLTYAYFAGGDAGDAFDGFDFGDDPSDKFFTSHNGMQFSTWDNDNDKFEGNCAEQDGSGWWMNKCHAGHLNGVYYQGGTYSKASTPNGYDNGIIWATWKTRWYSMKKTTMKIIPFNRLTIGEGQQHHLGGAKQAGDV
T2 sequence (P02671 other isoform, or with tags, fused parts or gaps, chain 1 of 3): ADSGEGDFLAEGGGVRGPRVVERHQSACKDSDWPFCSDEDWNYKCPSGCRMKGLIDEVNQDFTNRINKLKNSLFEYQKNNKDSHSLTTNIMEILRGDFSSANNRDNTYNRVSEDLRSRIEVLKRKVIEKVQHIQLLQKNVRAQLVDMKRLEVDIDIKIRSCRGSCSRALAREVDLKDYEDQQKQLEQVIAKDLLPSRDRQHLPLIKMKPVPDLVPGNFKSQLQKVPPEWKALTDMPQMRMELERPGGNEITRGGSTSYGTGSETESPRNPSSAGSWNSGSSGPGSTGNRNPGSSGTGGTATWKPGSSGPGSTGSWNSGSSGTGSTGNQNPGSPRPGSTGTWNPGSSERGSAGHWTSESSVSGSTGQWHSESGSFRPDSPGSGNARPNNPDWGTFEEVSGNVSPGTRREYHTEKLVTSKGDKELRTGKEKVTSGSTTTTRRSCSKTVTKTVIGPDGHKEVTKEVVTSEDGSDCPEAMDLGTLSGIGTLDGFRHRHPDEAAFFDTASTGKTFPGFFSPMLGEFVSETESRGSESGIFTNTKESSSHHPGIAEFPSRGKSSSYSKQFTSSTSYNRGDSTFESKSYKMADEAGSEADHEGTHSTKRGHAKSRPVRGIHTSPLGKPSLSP
T2 sequence (P02675 31-491, chain 2 of 3): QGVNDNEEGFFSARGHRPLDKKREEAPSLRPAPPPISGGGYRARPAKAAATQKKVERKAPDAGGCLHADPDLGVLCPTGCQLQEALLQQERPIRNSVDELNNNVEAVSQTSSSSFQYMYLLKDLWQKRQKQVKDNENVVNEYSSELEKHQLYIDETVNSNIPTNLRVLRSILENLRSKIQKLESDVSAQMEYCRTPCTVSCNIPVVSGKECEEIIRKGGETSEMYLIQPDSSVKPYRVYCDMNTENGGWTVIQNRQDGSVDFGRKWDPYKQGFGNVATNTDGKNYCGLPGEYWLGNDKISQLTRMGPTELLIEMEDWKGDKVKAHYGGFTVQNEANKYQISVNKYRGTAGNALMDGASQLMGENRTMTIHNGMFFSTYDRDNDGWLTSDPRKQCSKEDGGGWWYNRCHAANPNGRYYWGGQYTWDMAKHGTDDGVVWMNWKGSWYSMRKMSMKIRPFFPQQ
T2 sequence (P02679 other isoform, or with tags, fused parts or gaps, chain 3 of 3): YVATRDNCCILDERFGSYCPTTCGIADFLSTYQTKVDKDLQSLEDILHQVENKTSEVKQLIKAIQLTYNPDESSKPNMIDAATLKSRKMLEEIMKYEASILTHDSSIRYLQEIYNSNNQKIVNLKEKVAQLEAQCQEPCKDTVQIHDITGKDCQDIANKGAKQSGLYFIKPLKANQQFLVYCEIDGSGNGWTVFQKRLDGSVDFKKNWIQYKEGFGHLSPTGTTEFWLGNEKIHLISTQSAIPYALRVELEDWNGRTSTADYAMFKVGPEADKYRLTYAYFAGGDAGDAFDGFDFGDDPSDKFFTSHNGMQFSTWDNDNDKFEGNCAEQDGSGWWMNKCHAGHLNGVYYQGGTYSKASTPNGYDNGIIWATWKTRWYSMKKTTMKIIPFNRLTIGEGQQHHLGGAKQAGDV
Sequence of Bovine serum albumin (P02769 25-607, one chain of several): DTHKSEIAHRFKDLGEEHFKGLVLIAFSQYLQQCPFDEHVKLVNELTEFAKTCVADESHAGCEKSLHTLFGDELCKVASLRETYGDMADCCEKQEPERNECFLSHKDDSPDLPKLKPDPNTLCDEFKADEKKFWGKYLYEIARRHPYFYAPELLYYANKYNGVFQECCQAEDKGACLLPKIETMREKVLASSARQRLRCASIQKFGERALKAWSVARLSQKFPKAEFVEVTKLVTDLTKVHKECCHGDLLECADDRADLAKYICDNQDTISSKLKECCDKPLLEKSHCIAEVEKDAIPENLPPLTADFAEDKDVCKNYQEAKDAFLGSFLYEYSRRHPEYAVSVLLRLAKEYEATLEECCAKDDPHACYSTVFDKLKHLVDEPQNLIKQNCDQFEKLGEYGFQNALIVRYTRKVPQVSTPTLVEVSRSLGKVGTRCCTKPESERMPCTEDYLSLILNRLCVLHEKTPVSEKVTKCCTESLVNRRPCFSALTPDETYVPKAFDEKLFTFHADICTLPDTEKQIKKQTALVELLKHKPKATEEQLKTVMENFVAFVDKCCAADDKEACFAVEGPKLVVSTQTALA

ACTACCGATGCGGACTTATCCGCACGTACCGCTATTGTAG (ssDNA) [Scrambled Sequence 2]
binding result [1]: no binding

TTGTTAGATACTCGCTCTCATCCGCCGTACAACTGGCCAG (ssDNA) [Scrambled Sequence 1]
binding result [1]: no binding

GCGCGGTCCCGATTTGGTGTAAAATTCCCTCAGCCCTACA (ssDNA) [3'Biotin-ADI1701]
binding result (Fibrinogen [2]): no binding | Kd [3]: 2.5 nM

GCGCGGTCCCGATTTGGTGTAAAATTCCCTCAGCCCTACA (ssDNA) [ADI1701]
binding result (Fibrinogen [4]): no binding

GCGCGGTCCCGATTTGGTGTAAAATTCCCTCAGCCCTACA (ssDNA) [5'Biotin-ADI1701]
Kd [5]: ~10 nM

GCGCGGTCCCGATTTGGTGTAAAATTCCCTCAGCCCTACA (ssDNA, NH2-C6 linker, latex conjugate) [ADI1701-latex (NH2-C6-ADI1701 coupled to beads)]
binding result [6]: binds | binding result (Bovine serum albumin): no binding

— US20230201357, “D-DIMER-SPECIFIC APTAMERS AND METHODS OF USE IN DIAGNOSTICS, THERAPEUTIC AND THERANOSTIC PURPOSES” (APTAMER DIAGNOSTIC, INC., published 2023)
